In one data set the target is T1, rhVEGF165 (recombinant human vascular endothelial growth factor 165) (human, UniProt P15692-4 27-191). The data set is described as follows: fluorescence polarization. A general note: Polarisation of emitted light reports the rotation of a fluorescent probe.
Take GGAAGCCCGCTGTGACATCTGGAGCCGGTTCCCGAGCCA (ssDNA) [C 1]: the Kd came to 101 nM.

In the case of GTCTGTACCAATCTAAAAGTGTATATTATATCTACGAGCCT (ssDNA) [R 1], the Kd came to 100 nM.

For ATTCTGGGGAGTGGTACGTAAGCAGTGCCACCACGGTTAT (ssDNA) [R 2], the Kd was determined as 88 nM.

With CCTTGTCATGATAGCTATGTTTCAGCCAACCATACCCGCT (ssDNA) [R 3], the Kd stood at 46 nM.

Regarding TGGCTGTTATTTCTCTCGGCCTCAGATCTTGGGCCCAACA (ssDNA) [C 3], the dissociation constant Kd was found to be 164 nM.

For CGAGGATATCCGATTGTGGGTGACGTATTGGACACCTTCCCG (ssDNA) [C 2], the dissociation constant (Kd) was found to be 162 nM.

Another data set has as its target T1, rhVEGF165 (recombinant human vascular …). Nature of the data set: affinity capillary electrophoresis.
As to GGAAGCCCGCTGTGACATCTGGAGCCGGTTCCCGAGCCA (ssDNA) [C 1], the Kd came out at 49 nM.

Regarding GTCTGTACCAATCTAAAAGTGTATATTATATCTACGAGCCT (ssDNA) [R 1], the Kd came out at 53 nM.

ATTCTGGGGAGTGGTACGTAAGCAGTGCCACCACGGTTAT (ssDNA) [R 2]: the Kd came out at 72 nM.

As for CCTTGTCATGATAGCTATGTTTCAGCCAACCATACCCGCT (ssDNA) [R 3], the Kd was determined as 22 nM.

On to TGGCTGTTATTTCTCTCGGCCTCAGATCTTGGGCCCAACA (ssDNA) [C 3], for which the Kd is 66 nM.

For CGAGGATATCCGATTGTGGGTGACGTATTGGACACCTTCCCG (ssDNA) [C 2], the Kd turned out to be 21 nM.

As a reminder, the Kd is a measure of binding affinity in units of concentration.

These data come from PMC3892959.
